Test results reported in US20260242478A1 (published 2026).
Where no end group is shown, it is not given here.

B1: Phage-996 (peptide)
peptide: YCDGHTSEYMTKCL
modifications: cysteine pairing not given here; also: displayed fused to phage pIII protein, fusion end and linker not given here
notes: Clonal phage of the peptide-87 library, tested as crude supernatant; not shown: fused to the pIII filament protein of the bacteriophage
B2: Phage-992 (peptide)
peptide: YCDGHSQAHMQKCL
modifications: cysteine pairing not given here; also: displayed fused to phage pIII protein, fusion end and linker not given here
notes: as for B1
B3: Phage-991 (peptide)
peptide: YCEGHTLEYMWKCL
modifications: cysteine pairing not given here; also: displayed fused to phage pIII protein, fusion end and linker not given here
notes: as for B1
B4: Phage-990 (peptide)
peptide: YCDGHSEVYMSKCL
modifications: cysteine pairing not given here; also: displayed fused to phage pIII protein, fusion end and linker not given here
notes: as for B1
B5: Phage-988 (peptide)
peptide: YCDGHFLTYMTKCL
modifications: cysteine pairing not given here; also: displayed fused to phage pIII protein, fusion end and linker not given here
notes: as for B1
B6: Phage-987 (peptide)
peptide: YCDGHSPLYMVKCL
modifications: cysteine pairing not given here; also: displayed fused to phage pIII protein, fusion end and linker not given here
notes: as for B1
B7: Phage-994 (peptide)
peptide: YCDGHLPVYMMKCL
modifications: cysteine pairing not given here; also: displayed fused to phage pIII protein, fusion end and linker not given here
notes: as for B1
B8: Phage-989 (peptide)
peptide: YCAGHSEEYMDKCL
modifications: cysteine pairing not given here; also: displayed fused to phage pIII protein, fusion end and linker not given here
notes: as for B1
B9: Phage-993 (peptide)
peptide: YCAGHDQQYMEKCL
modifications: cysteine pairing not given here; also: displayed fused to phage pIII protein, fusion end and linker not given here
notes: as for B1
B10: Phage-995 (peptide)
peptide: YCAGHNAQYMSKCL
modifications: cysteine pairing not given here; also: displayed fused to phage pIII protein, fusion end and linker not given here
notes: as for B1
B11: Phage-1080 (peptide)
peptide: YCEGHSQLYMAKCL
modifications: cysteine pairing not given here; also: displayed as fusion to phage pIII, linker not given here
B12: Phage-1084 (peptide)
peptide: YCAGHTSEYMSKCL
modifications: cysteine pairing not given here; also: displayed as fusion to phage pIII, linker not given here
B13: Phage-1075 (peptide)
peptide: YCDGHAPEYIQKCL
modifications: cysteine pairing not given here; also: displayed as fusion to phage pIII, linker not given here
B14: Phage-1085 (peptide)
peptide: YCDGHMKEYMLKCL
modifications: cysteine pairing not given here; also: displayed as fusion to phage pIII, linker not given here
B15: Phage-1087 (peptide)
peptide: YCDGHLALYMWKCL
modifications: cysteine pairing not given here; also: displayed as fusion to phage pIII, linker not given here
B16: Phage-1076 (peptide)
peptide: YCEGHLDEYLQKCL
modifications: cysteine pairing not given here; also: displayed as fusion to phage pIII, linker not given here
B17: Phage-1082 (peptide)
peptide: YCEGHLPAYMGKCI
modifications: cysteine pairing not given here; also: displayed as fusion to phage pIII, linker not given here
B18: Phage-1081 (peptide)
peptide: YCDGHSETYLWKCL
modifications: cysteine pairing not given here; also: displayed as fusion to phage pIII, linker not given here
B19: Phage-1078 (peptide)
peptide: YCDGHQPQYMSKCL
modifications: cysteine pairing not given here; also: displayed as fusion to phage pIII, linker not given here
B20: Phage-1077 (peptide)
peptide: YCDGHLQEYMQKCL
modifications: cysteine pairing not given here; also: displayed as fusion to phage pIII, linker not given here
B21: Phage-1086 (peptide)
peptide: YCDGHVKEYMYKCL
modifications: cysteine pairing not given here; also: displayed as fusion to phage pIII, linker not given here
B22: Phage-1083 (peptide)
peptide: YCEGHLPEYMIKCI
modifications: cysteine pairing not given here; also: displayed as fusion to phage pIII, linker not given here
B23: Phage-1079 (peptide)
peptide: YCDGHLSEYIGKCL
modifications: cysteine pairing not given here; also: displayed as fusion to phage pIII, linker not given here
B24: Phage-1088 (peptide)
peptide: YCDGHLSIYMTKCL
modifications: cysteine pairing not given here; also: displayed as fusion to phage pIII, linker not given here
B25: Phage-1104 (Peptide-87 library clone, SEQ ID NO: 1420) (peptide)
peptide: YCSEHQIIFIQKCL
notes: Tested as clonal phage supernatant; not shown: pIII coat protein of the bacteriophage to which the peptide is fused
B26: Phage-1103 (Peptide-87 library clone, SEQ ID NO: 1419) (peptide)
peptide: YCAGHLPMYMQKCL
notes: as for B25
B27: Phage-1110 (Peptide-87 library clone, SEQ ID NO: 1426) (peptide)
peptide: YCEGHLPMYMQKCL
notes: as for B25
B28: Phage-1102 (Peptide-87 library clone, SEQ ID NO: 1418) (peptide)
peptide: YCDGHLPLYMQKCF
notes: as for B25

Biological target: T1, Anti-CD28 Fab (SEQ ID NOs: 696, 697)
T1 construct: In the phage ELISA the Fab was biotinylated and captured on neutravidin coated plates
Test: phage binding ELISA; biotinylated anti-CD28 Fab on neutravidin plate, clonal phage supernatant, anti-M13 HRP detection
T1 sequence (VH, as listed by the source, chain 1 of 2): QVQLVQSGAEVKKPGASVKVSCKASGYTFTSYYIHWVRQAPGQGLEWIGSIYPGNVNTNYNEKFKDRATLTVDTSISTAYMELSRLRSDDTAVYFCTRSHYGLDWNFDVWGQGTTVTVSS
T1 sequence (VL, as listed by the source, chain 2 of 2): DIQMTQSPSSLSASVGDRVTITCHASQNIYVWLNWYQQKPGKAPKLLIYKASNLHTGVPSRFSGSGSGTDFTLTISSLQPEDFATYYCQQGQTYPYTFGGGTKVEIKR

For B1, which “Anti-CD28 Fab signal (phage binding ELISA)” value is on record?
Its value is 1.54.

B2 was tested. Which “Anti-CD28 Fab signal (phage binding ELISA)” value did it give?
The value was 1.55.

With B3 as the binder, how does the “Anti-CD28 Fab signal (phage binding ELISA)” value read?
The value was 1.55.

How did the “Anti-CD28 Fab signal (phage binding ELISA)” value turn out when B4 was run?
The value was 1.55.

Which “Anti-CD28 Fab signal (phage binding ELISA)” value does the source give for B5 here?
The value was 1.56.

For B6, which “Anti-CD28 Fab signal (phage binding ELISA)” value is on record?
The value was 1.56.

Which “Anti-CD28 Fab signal (phage binding ELISA)” value does the source give for B7 here?
Its value is 1.55.

How did the “Anti-CD28 Fab signal (phage binding ELISA)” value turn out when B8 was run?
The value was 1.55.

B9 was tested. Which “Anti-CD28 Fab signal (phage binding ELISA)” value did it give?
Its value is 1.55.

How did the “Anti-CD28 Fab signal (phage binding ELISA)” value turn out when B10 was run?
The value was 1.55.

Biological target: T2, Anti-CD28 Fab (SEQ ID NOs: 696, 697)
T2 construct: In the phage ELISA the Fab was biotinylated and captured on neutravidin coated plates
Test: phage binding ELISA; biotinylated anti-CD28 Fab on neutravidin plate, clonal phage detected with anti-M13 HRP
T2 sequence (VH, as listed by the source, chain 1 of 2): as the sequence (VH, as listed by the source, chain 1 of 2) above
T2 sequence (VL, as listed by the source, chain 2 of 2): as the sequence (VL, as listed by the source, chain 2 of 2) above
Description: (§1) After panning, phage infected bacteria were plated out and colonies picked into 96 well blocks. Clonal phage was then amplified and separated from bacterial cells via centrifugation.
(§2) Clonal phage were harvested as crude supematants and screened via standard ELISAs. […] Prior to the addition of clonal phage, wells were incubated with blocking buffer and CD28 antigen or blocking buffer alone. Without washing or aspirating, clonal phage supematants were then added to the wells and incubated for a short time. Wells were then washed followed by detection of bound phage using a horse radish conjugated anti-M13 antibody. Clonal phage of interest were then sent for sequence analysis.

How did the “Anti-CD28 Fab signal (phage binding ELISA)” value turn out when B11 was run?
The value was 1.37.

For B12, which “Anti-CD28 Fab signal (phage binding ELISA)” value is on record?
Its value is 1.36.

How did the “Anti-CD28 Fab signal (phage binding ELISA)” value turn out when B13 was run?
The value was 1.38.

For B14, which “Anti-CD28 Fab signal (phage binding ELISA)” value is on record?
The value was 1.36.

B15 was tested. Which “Anti-CD28 Fab signal (phage binding ELISA)” value did it give?
The value was 1.36.

Which “Anti-CD28 Fab signal (phage binding ELISA)” value does the source give for B16 here?
The value was 1.38.

For B17, which “Anti-CD28 Fab signal (phage binding ELISA)” value is on record?
Its value is 1.37.

For B18, which “Anti-CD28 Fab signal (phage binding ELISA)” value is on record?
Its value is 1.37.

B19 was tested. Which “Anti-CD28 Fab signal (phage binding ELISA)” value did it give?
The value was 1.38.

With B20 as the binder, how does the “Anti-CD28 Fab signal (phage binding ELISA)” value read?
Its value is 1.38.

For B21, which “Anti-CD28 Fab signal (phage binding ELISA)” value is on record?
The value was 1.36.

How did the “Anti-CD28 Fab signal (phage binding ELISA)” value turn out when B22 was run?
Its value is 1.36.

B23 was tested. Which “Anti-CD28 Fab signal (phage binding ELISA)” value did it give?
The value was 1.37.

Which “Anti-CD28 Fab signal (phage binding ELISA)” value does the source give for B24 here?
Its value is 1.36.

Biological target: T3, Anti-CD28 Fab (SEQ ID NOs: 696, 697)
T3 construct: In the phage ELISA the Fab was biotinylated and captured on neutravidin coated plates
Test: phage ELISA; biotinylated anti-CD28 Fab on neutravidin plate, clonal phage supernatant, anti-M13 HRP detection;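 further: crude supernatants of single phage clones picked after panning were screened for binding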
T3 sequence (VH, as listed by the source, chain 1 of 2): as the sequence (VH, as listed by the source, chain 1 of 2) above
T3 sequence (VL, as listed by the source, chain 2 of 2): as the sequence (VL, as listed by the source, chain 2 of 2) above

With B25 as the binder, how does the “Anti-CD28 Fab signal (phage binding ELISA)” value read?
Its value is 1.32.

With B26 as the binder, how does the “Anti-CD28 Fab signal (phage binding ELISA)” value read?
Its value is 1.33.

How did the “Anti-CD28 Fab signal (phage binding ELISA)” value turn out when B27 was run?
Its value is 1.31.

How did the “Anti-CD28 Fab signal (phage binding ELISA)” value turn out when B28 was run?
Its value is 1.33.

Biological target: T3, Anti-CD28 Fab (SEQ ID NOs: 696, 697)
Test: phage ELISA; captured anti-CD28 Fab pre-incubated with CD28 antigen as competitor, anti-M13 HRP detection;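 further: crude clonal phage supernatants screened by ELISA, with wells pre-incubated with CD28 antigen in blocking buffer, compared against wells given blocking buffer alone as control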
Description: as §1, §2

B25 was tested. Which “Anti-CD28 Fab signal in the presence of CD28 (phage binding ELISA)” value did it give?
The value was 0.08.

With B26 as the binder, how does the “Anti-CD28 Fab signal in the presence of CD28 (phage binding ELISA)” value read?
The value was 0.08.

For B27, which “Anti-CD28 Fab signal in the presence of CD28 (phage binding ELISA)” value is on record?
Its value is 0.08.

Which “Anti-CD28 Fab signal in the presence of CD28 (phage binding ELISA)” value does the source give for B28 here?
The value was 0.1.

Biological target: T2, Anti-CD28 Fab (SEQ ID NOs: 696, 697)
Test: phage binding ELISA; Fab-coated wells pre-incubated with CD28 antigen as competitor, phage detected with anti-M13 HRP
Description: as §1, §2

Which “Anti-CD28 Fab signal in the presence of CD28 (phage binding ELISA)” value does the source give for B11 here?
Its value is 0.07.

For B12, which “Anti-CD28 Fab signal in the presence of CD28 (phage binding ELISA)” value is on record?
The value was 0.07.

How did the “Anti-CD28 Fab signal in the presence of CD28 (phage binding ELISA)” value turn out when B13 was run?
Its value is 0.06.

For B14, which “Anti-CD28 Fab signal in the presence of CD28 (phage binding ELISA)” value is on record?
The value was 0.06.

Which “Anti-CD28 Fab signal in the presence of CD28 (phage binding ELISA)” value does the source give for B15 here?
Its value is 0.17.

With B16 as the binder, how does the “Anti-CD28 Fab signal in the presence of CD28 (phage binding ELISA)” value read?
Its value is 0.07.

With B17 as the binder, how does the “Anti-CD28 Fab signal in the presence of CD28 (phage binding ELISA)” value read?
The value was 0.09.

How did the “Anti-CD28 Fab signal in the presence of CD28 (phage binding ELISA)” value turn out when B18 was run?
Its value is 0.1.

For B19, which “Anti-CD28 Fab signal in the presence of CD28 (phage binding ELISA)” value is on record?
The value was 0.09.

With B20 as the binder, how does the “Anti-CD28 Fab signal in the presence of CD28 (phage binding ELISA)” value read?
The value was 0.06.

Which “Anti-CD28 Fab signal in the presence of CD28 (phage binding ELISA)” value does the source give for B21 here?
The value was 0.06.

With B22 as the binder, how does the “Anti-CD28 Fab signal in the presence of CD28 (phage binding ELISA)” value read?
Its value is 0.1.

For B23, which “Anti-CD28 Fab signal in the presence of CD28 (phage binding ELISA)” value is on record?
The value was 0.06.

B24 was tested. Which “Anti-CD28 Fab signal in the presence of CD28 (phage binding ELISA)” value did it give?
Its value is 0.07.

Biological target: T1, Anti-CD28 Fab (SEQ ID NOs: 696, 697)
Test: phage binding ELISA; Fab-coated wells pre-incubated with CD28 antigen as competitor, anti-M13 HRP detection;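 further: crude clonal phage supernatants from panned colonies added to wells after blocking buffer plus CD28 treatment, bound phage measured after a brief incubation and washing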
Description: as §1, §2

Which “Anti-CD28 Fab signal in the presence of CD28” value does the source give for B1 here?
The value was 0.06.

Which “Anti-CD28 Fab signal in the presence of CD28” value does the source give for B2 here?
Its value is 0.08.

B3 was tested. Which “Anti-CD28 Fab signal in the presence of CD28” value did it give?
The value was 0.33.

B4 was tested. Which “Anti-CD28 Fab signal in the presence of CD28” value did it give?
The value was 0.06.

B5 was tested. Which “Anti-CD28 Fab signal in the presence of CD28” value did it give?
The value was 0.07.

B6 was tested. Which “Anti-CD28 Fab signal in the presence of CD28” value did it give?
Its value is 0.06.

How did the “Anti-CD28 Fab signal in the presence of CD28” value turn out when B7 was run?
The value was 0.07.

How did the “Anti-CD28 Fab signal in the presence of CD28” value turn out when B8 was run?
The value was 0.05.

For B9, which “Anti-CD28 Fab signal in the presence of CD28” value is on record?
Its value is 0.23.

Which “Anti-CD28 Fab signal in the presence of CD28” value does the source give for B10 here?
The value was 0.05.
